PMC4976216

Target: microtubules made from mutant yeast tubulin containing no β-CTT (Saccharomyces cerevisiae) (UniProt P09733)
Assay: co-sedimentation; microtubule binding spin-down assay with yeast tubulin polymerized at 30 °C, experiment carried out at 30 °C; anti-tubulin and anti-CGN western blot

B1: GST-CGN(1-406) (domain or fragment)
chain: MEQAPNMAEPRGPVDHGVQIRFITEPVSGAEMGTLRRGGRRPAKDARASTYGVAVRVQGIAGQPFVVLNSGEKGGDSFGVQIKGANDQGASGALSSDLELPENPYSQVKGFPAPSQSSTSDEEPGAYWNGKLLRSHSQASLAGPGPVDPSNRSNSMLELAPKVASPGSTIDTAPLSSVDSLINKFDSQLGGQARGRTGRRTRMLPPEQRKRSKSLDSRLPRDTFEERERQSTNHWTSSTKYDNHVGTSKQPAQSQNLSPLSGFSRSRQTQDWVLQSFEEPRRSAQDPTMLQFKSTPDLLRDQQEAAPPGSVDHMKATIYGILREGSSESETSVRRKVSLVLEKMQPLVMVSSGSTKAVAGQGELTRKVEELQRKLDEEVKKRQKLEPSQVGLERQLEEKTEECSRL
reduction in binding against wild-type yeast tubulin: 75%
